Assays:
[1] = tested on: GST-MYBS1 (rice); experiment: pull-down; settings: buffer not stated
[2] = target: His-MoSPAB1ΔSP (Magnaporthe oryzae) (UniProt G4N0C3); experiment: pull-down; settings: buffer not stated

Q: Bsr-d1 promoter 1689 bp was tested. Which binding signal (fold of bound GST-MYBS1) [1] did it give?
A: Its binding signal (fold of bound GST-MYBS1) is 0.65.

Q: And the binding signal (fold of bound MoSPAB1ΔSP) [2]?
A: Its binding signal (fold of bound MoSPAB1ΔSP) is 1.11.
